Assay results as given in article PMC9402713, “Structural analysis of Red1 as a conserved scaffold of the RNA-targeting MTREC/PAXT complex” (Nature Communications, 2022).
Where no end group is shown, it is not given here.

Legend:
[1] = target: His-MBP-Red1 452-524 (S. pombe) (UniProt Q9UTR8); assay: SEC-MALS; His-MBP-Red1 452-524, the dimer peak, injected at 9 mg/ml; stayed dimeric on reinjection
[2] = target: Ars2 68-183,206-531 (S. pombe) (UniProt O94326); assay: SEC-MALS; Ars2 68-183,206-531, the dimer peak of the size exclusion chromatography
[3] = target: T1, full-length (FL) His-MBP-Ars2 (S. pombe, UniProt O94326 1-609); assay: ITC; 25 °C, 0.4-0.8 mM Red1 injected into 30-40 µM Ars2, 20 mM Tris pH 8.0, 200 mM NaCl, one-site model; settings: both partners purified
T1 construct: Ars2, S. pombe, 609 residues; the tags are named on the protein for the gel filtration; also called FL Ars2; full-length Ars2; source: E. coli, expressed as MBP fusion, purified (amylose resin, Superdex 200)
T1 sequence (looked up): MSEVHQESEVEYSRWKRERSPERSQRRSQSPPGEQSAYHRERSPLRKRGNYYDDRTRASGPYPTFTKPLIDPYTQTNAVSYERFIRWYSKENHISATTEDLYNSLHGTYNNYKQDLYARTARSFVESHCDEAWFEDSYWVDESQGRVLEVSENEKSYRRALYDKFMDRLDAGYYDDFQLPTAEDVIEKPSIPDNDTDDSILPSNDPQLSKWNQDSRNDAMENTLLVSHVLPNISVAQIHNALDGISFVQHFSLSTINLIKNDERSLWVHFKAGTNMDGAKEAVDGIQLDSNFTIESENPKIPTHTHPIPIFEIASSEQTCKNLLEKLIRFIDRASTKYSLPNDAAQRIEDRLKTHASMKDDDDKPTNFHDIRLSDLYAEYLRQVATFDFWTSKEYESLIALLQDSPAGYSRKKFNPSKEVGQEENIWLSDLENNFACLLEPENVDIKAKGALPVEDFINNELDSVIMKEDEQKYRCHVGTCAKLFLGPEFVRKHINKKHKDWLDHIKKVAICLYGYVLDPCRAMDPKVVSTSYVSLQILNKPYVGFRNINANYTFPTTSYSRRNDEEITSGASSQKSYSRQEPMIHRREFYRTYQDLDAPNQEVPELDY

Ars2 (58-609) = target: T2, Ars2 (58-609) (Schizosaccharomyces pombe); assay: ITC; 200 mM NaCl
T2 chain: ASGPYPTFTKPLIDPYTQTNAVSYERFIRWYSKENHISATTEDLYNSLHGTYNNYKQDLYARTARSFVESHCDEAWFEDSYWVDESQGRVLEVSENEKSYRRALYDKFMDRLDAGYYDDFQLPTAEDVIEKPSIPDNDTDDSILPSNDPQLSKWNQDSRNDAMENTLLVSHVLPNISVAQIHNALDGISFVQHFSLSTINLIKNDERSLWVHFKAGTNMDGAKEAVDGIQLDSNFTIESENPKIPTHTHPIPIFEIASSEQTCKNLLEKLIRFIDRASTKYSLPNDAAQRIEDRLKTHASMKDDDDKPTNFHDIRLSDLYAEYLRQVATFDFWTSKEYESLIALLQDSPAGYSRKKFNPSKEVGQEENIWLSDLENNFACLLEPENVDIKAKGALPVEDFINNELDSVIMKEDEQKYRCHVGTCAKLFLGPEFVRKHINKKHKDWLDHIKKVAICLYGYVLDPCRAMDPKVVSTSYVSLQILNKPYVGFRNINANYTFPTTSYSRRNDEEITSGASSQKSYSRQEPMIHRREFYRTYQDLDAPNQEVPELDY

[4] = target: T3, His-GST-tagged human ARS2 147-871 (human, UniProt Q9BXP5 147-871); assay: pull-down; MBP pull-down: Ni-purified His-MBP-peptide held on amylose resin, His-GST-ARS2 added; 20 mM Tris pH 8, 100 mM NaCl; eluted with 10 mM maltose; settings: both partners purified
T3 construct: ARS2 (SRRT), human, residues 147-871; vector pETM30; also called hARS2^147–871; His-GST-ARS2; source: E. coli BL21Star (DE3), purified (Ni^2+ chelating Sepharose)
T3 sequence (looked up): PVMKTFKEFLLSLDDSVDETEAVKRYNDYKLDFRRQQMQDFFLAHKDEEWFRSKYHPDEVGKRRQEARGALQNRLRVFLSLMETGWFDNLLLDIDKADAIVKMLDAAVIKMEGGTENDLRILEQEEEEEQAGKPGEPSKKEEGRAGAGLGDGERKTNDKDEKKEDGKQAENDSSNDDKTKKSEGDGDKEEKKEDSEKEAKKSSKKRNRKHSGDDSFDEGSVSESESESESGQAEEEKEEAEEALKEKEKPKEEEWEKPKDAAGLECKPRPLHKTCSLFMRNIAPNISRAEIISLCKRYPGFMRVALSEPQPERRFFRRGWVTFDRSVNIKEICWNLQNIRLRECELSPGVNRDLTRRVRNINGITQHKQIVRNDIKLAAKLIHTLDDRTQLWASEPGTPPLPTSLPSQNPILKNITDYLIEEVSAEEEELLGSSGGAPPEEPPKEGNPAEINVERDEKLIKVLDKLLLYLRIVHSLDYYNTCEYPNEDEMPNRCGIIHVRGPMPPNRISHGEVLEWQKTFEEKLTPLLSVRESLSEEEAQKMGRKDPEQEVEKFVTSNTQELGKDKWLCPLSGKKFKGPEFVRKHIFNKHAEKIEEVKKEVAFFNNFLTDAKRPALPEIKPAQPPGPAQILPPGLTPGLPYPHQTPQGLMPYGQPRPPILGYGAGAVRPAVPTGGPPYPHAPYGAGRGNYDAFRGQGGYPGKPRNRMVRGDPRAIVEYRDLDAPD

[5] = target: Strep-Iss10 1-45 (S. pombe); assay: SEC-MALS; co-purified Red1 192-236 / Iss10 1-45 complex on Superdex 200 10/300 GL, 4 °C, 20 mM Tris-HCl pH 8, 100 mM NaCl, 5 mM β-mercaptoethanol
[6] = target: T4, full-length (FL) His-MBP-Ars2 (S. pombe, UniProt O94326 1-609); assay: ITC; 200 mM NaCl
T4 chain: T1 sequence (looked up)

[7] = target: full-length (FL) His-MBP-Ars2 (S. pombe) (UniProt O94326); assay: ITC; 25 °C, 0.4-0.8 mM Red1 injected into 30-40 µM Ars2, 20 mM Tris pH 8.0, 200 mM NaCl, one-site model
Strep-Ars2 107-527 [8] = target: T5, Strep-Ars2 107-527 (S. pombe, UniProt O94326 107-527); assay: ITC; 25 °C, 0.4-0.8 mM Red1 injected into 30-40 µM Ars2, 20 mM Tris pH 8.0, 100 mM NaCl, one-site model; settings: both partners purified
T5 construct: vector pETM41; source: E. coli BL21Star (DE3), purified (Ni^2+ chelating Sepharose); not shown: Strep-tag, C-terminal, kept
T5 sequence (looked up): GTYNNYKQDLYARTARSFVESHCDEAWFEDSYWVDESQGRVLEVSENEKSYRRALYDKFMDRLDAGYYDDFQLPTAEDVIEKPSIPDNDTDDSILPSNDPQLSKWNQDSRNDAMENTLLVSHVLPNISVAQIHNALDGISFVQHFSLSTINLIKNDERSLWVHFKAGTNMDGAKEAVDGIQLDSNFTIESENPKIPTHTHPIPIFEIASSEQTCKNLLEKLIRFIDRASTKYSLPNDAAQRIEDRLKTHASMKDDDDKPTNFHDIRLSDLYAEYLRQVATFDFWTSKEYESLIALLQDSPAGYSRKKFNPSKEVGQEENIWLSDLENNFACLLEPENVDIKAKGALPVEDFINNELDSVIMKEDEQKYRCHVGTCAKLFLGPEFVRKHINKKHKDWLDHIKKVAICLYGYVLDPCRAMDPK

Strep-Ars2 107-527 [9] = target: T5, Strep-Ars2 107-527; assay: ITC; 25 °C, 0.4-0.8 mM Red1 injected into 30-40 µM Ars2, 20 mM Tris pH 8.0, 200 mM NaCl, one-site model; settings: both partners purified

His-MBP-Red1 452-524 (from UniProt Q9UTR8 452-524) (domain or fragment)
stoichiometry N [1]: 2

Ars2 68-183,206-531 (from UniProt O94326 68-183; O94326 206-531) (domain or fragment)
stoichiometry N [2]: 2

B1: Red1 peptide 20-40 (peptide)
peptide: KNEEDESNDSDKEDGEISEDD
notes: Red1, S. pombe, residues 20-40 with the EDGEI motif; also called Red1^20–40 peptide; Red1 N-terminal peptide; source: synthetic peptide (PSL GMBH)
Kd [3]: ~5 µM

KNEEDESNDSDKEDGEISEDD (not fully specified)
Kd (Ars2 (58-609)): 4.4 µM

B2: His-MBP-ZFC3H1 12-33 I27L (domain or fragment, human, UniProt O60293 12-33, looked up)
chain: SGLSPKEEGELEDGELSDDDNN
notes: ZFC3H1, human, residues 12-33; source: E. coli BL21Star (DE3), purified (Ni^2+ chelating Sepharose)
binding result [4]: binds

TTNQKEAEKAVSQLFEVGVRFNDFIAEGIEPSVVHTLFLKLGLDS (domain or fragment) [Red1 192-236, His-MBP tag cleaved]
stoichiometry N [5]: 1

B3: His-MBP-Red1 1-54 (domain or fragment)
chain: MSRSINLDELRKKALESKKKNEEDESNDSDKEDGEISEDDPVIDQSNSVPPMKV
Kd [6]: 5.6 µM
Kd [7]: 5 µM

B4: His-MBP-ZFC3H1 20-31 (domain or fragment, human, UniProt O60293 20-31, looked up)
chain: GELEDGEISDDD
notes: ZFC3H1, human, residues 20-31 (12 residues); source: E. coli BL21Star (DE3), purified (Ni^2+ chelating Sepharose)
binding result [4]: binds

B5: His-MBP-tagged ZFC3H1 12-33 (domain or fragment, human, UniProt O60293 12-33, looked up)
chain: SGLSPKEEGELEDGEISDDDNN
notes: ZFC3H1, human, 1989 residues, residues 12-33 with the EDGEI motif; vector pETM41; also called MBP-ZFC3H1; hZFC3H1; source: E. coli BL21Star (DE3), purified (Ni^2+ chelating Sepharose)
binding result [4]: binds

B6: His-MBP-Red1 20-40 (domain or fragment, S. pombe)
chain: KNEEDESNDSDKEDGEISEDD
notes: Red1, S. pombe, residues 20-40 with the EDGEI motif; vector pETM41; also called MBP-Red1 EDGEI motif-containing peptide; source: E. coli BL21Star (DE3), purified (Ni^2+ chelating Sepharose or amylose resin, Superdex 200)
Kd (Strep-Ars2 107-527 [8]): 0.8 µM
binding result [4]: binds
Kd (Strep-Ars2 107-527 [9]): 5 µM
Kd [3]: ~5 µM
